From patent publication US7785835 (QUEENSLAND UNIVERSITY OF TECHNOLOGY, dated 2010)

Tests used:
[1] = biological target: T1, vitronectin (UniProt P04004 20-478); assay: [^125I]-IGF-I bound to VN-coated wells (300 ng/well) with 5 ng IGFBP; IGFBP:VN binding read through labelled IGF-I
T1 construct: also called VN

[2] = biological target: T1, vitronectin; assay: [^125I]-IGF-I bound to VN-coated wells with 2 ng of the non-glycosylated IGFBP-3 mutant; IGFBP:VN binding read through labelled IGF-I

T1 sequence (P04004 20-478 limits assumed): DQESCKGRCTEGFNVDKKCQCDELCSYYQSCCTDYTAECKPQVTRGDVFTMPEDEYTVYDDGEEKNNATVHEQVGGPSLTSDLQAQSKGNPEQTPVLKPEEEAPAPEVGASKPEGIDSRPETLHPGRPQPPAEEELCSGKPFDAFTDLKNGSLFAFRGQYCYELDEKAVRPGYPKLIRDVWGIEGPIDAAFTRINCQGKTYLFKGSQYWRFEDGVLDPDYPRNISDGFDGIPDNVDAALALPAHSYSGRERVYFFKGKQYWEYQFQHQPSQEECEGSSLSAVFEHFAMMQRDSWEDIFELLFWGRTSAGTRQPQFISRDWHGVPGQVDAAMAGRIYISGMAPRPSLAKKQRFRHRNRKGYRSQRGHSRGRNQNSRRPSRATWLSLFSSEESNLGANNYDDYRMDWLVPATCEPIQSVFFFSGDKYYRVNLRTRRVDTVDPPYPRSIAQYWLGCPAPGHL

B1: recombinant IGFBP-2 produced in mammalian cells (other, UniProt P18065 36-325, looked up)
chain: AEVLFRCPPCTPERLAACGPPPVAPPAAVAAVAGGARMPCAELVREPGCGCCSVCARLEGEACGVYTPRCGQGLRCYPHPGSELPLQALVMGEGTCEKRRDAEYGASPEQVADNGDDHSEGGLVENHVDSTMNMLGGGGSAGRKPLKSGMKELAVFREKVTEQHRQMGKGGKHHLGLEEPKKLRPPPARTPCQQELDQVLERISTMRLPDERGPLEHLYSLHIPNCDKHGLYNLKQCKMSLNGQRGECWCVNPNTGKLIQGAPTIRGDPECHLFYNEQQEARGVHTQRMQ
**Q.** How did the “fold increase in binding of labelled IGF-I to VN-coated wells against wells without IGFBP” value [1] turn out when B1 was run?
**A.** ~2.8 fold

B2: recombinant IGFBP-4 produced in mammalian cells (other, UniProt P22692 22-258, looked up)
chain: DEAIHCPPCSEEKLARCRPPVGCEELVREPGCGCCATCALGLGMPCGVYTPRCGSGLRCYPPRGVEKPLHTLMHGQGVCMELAEIEAIQESLQPSDKDEGDHPNNSFSPCSAHDRRCLQKHFAKIRDRSTSGGKMKVNGAPREDARPVPQGSCQSELHRALERLAASQSRTHEDLYIIPIPNCDRNGNFHPKQCHPALDGQRGKCWCVDRKTGVKLPGGLEPKGELDCHQLADSFRE
**Q.** How did the “fold increase in binding of labelled IGF-I to VN-coated wells against wells without IGFBP” value [1] turn out when B2 was run?
**A.** ~3.8 fold

B3: IGFBP-3 glycosylation mutant (Non-gly IGFBP-3) (other, UniProt P17936 28-291, looked up)
chain: GASSAGLGPVVRCEPCDARALAQCAPPPAVCAELVREPGCGCCLTCALSEGQPCGIYTERCGSGLRCQPSPDEARPLQALLDGRGLCVAASAVSRLRAYLLPAPPAPGAASESEEDRSAGSVESPSVSSTHRVSDPKFHPLHSKIIIIKKGHAKDSQRYKVDYESQSTDTQAFSSESKRETEYGPCRREMEDTLNHLKFLNVLSPRGVHIPNCDKKGFYKKKQCRPSKGRKRGFCWCVDKYGQPLPGYTTKGKEDVHCYSMQSK
modifications: non-glycosylated (glycosylation sites mutated)
notes: they probably count on mature IGFBP-3; also called non-glycosylated IGFBP-3 mutant; mutant IGFBP-3
**Q.** With B3 as the binder, how does the “fold increase in binding of labelled IGF-I to VN-coated wells” value [2] read?
**A.** 20 fold
